Experimental findings from publication doi:10.1101/2022.10.27.514035, “Membrane curvature-generating proteins crucial for autophagosome formation” (bioRxiv, 2022) are described below.

The test deals with T1, S. cerevisiae Atg40, SBP-tagged (S. cerevisiae, UniProt Q99325 1-256).
T1 construct: Atg40, ERphagy receptor of Saccharomyces cerevisiae; 'SBP-tagged full-length sjRop1, scAtg40': full-length is read as holding for both; also called scAtg40; not shown: SBP, C-terminal, kept
T1 sequence (looked up): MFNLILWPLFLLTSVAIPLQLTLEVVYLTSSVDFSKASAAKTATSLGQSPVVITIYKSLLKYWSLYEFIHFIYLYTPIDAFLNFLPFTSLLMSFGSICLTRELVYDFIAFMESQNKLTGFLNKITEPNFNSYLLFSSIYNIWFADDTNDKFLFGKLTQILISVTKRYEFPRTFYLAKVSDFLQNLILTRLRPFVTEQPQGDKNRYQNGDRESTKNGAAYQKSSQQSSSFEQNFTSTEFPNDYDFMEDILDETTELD
Nature of the test: pull-down; SBP-tagged protein held on streptavidin beads, incubated with purified Atg8 for 1 h at 4 °C in 25 mM HEPES/KOH pH 7.4, 150 mM NaCl, 0.05% DDM; eluate on SDS-PAGE, Coomassie blue. The note with it: both partners purified.

B1: S. cerevisiae Atg8, His10-tagged (natural protein, UniProt P38182 1-117, looked up)
chain: MKSTFKSEYPFEKRKAESERIADRFKNRIPVICEKAEKSDIPEIDKRKYLVPADLTVGQFVYVIRKRIMLPPEKAIFIFVNDTLPPTAALMSAIYQEHKDKDGFLYVTYSGENTFGR
notes: Atg8, ubiquitin-like autophagy protein of Saccharomyces cerevisiae; also called scAtg8; source: E. coli, purified (Ni-NTA, SEC on Superdex 75)
For B1, the binding result is reported as “binds”.
